According to paper PMC8789040:

Assays:
[1] = target: LS4 (Archaeoglobus fulgidus scaffold, laboratory-evolved) (UniProt O29494); assay: EMSA; conditions: titration regime; SPR: 10 mM HEPES pH 7.4, 150 mM NaCl, 1 mM MgCl2, 0.05% P20, 0.25 mM TCEP, 0.1 mg/ml BSA, 25 ug/ml yeast tRNA, 25 C; EMSA: 10 mM HEPES-KOH pH 7.5, 140 mM KCl …
[2] = target: T1, LS12 E34S (Archaeoglobus fulgidus scaffold, laboratory-evolved) (UniProt O29494); assay: EMSA; conditions: titration regime; SPR: 10 mM HEPES pH 7.4, 150 mM NaCl, 1 mM MgCl2, 0.05% P20, 0.25 mM TCEP, 0.1 mg/ml BSA, 25 ug/ml yeast tRNA, 25 C; EMSA: 10 mM HEPES-KOH pH 7.5, 140 mM KCl …
T1 sequence: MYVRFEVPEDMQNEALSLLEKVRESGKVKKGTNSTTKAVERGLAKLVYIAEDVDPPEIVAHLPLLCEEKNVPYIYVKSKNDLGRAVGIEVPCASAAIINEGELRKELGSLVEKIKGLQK

[3] = target: T1, LS12 E34S (Archaeoglobus fulgidus scaffold, laboratory-evolved); assay: SPR; conditions: SPR: 10 mM HEPES pH 7.4, 150 mM NaCl, 1 mM MgCl2, 0.05% P20, 0.25 mM TCEP, 0.1 mg/ml BSA, 25 ug/ml yeast tRNA, 25 C, EMSA: 10 mM HEPES-KOH pH 7.5, 140 mM KCl …
[4] = target: LS4 (Archaeoglobus fulgidus scaffold, laboratory-evolved) (UniProt O29494); assay: SPR; conditions: SPR: 10 mM HEPES pH 7.4, 150 mM NaCl, 1 mM MgCl2, 0.05% P20, 0.25 mM TCEP, 0.1 mg/ml BSA, 25 ug/ml yeast tRNA, 25 C; EMSA: 10 mM HEPES-KOH pH 7.5, 140 mM KCl …

Sequence	Kd [3]	Kd [4]	also measured
AGAGGCAGAGAAAGGGAAACCUUGUGAGGCCUCU [Cy5-CS1]			Kd [1]: < 0.5 nM
AGAGGCAGAGAAGGAAACUUCCAUGACGCCUCU [Cy5-CS2]			Kd [2]: < 0.5 nM
GGAUCGCGUGAUCCGAAAGGUGACGAUCCAAAUCGACGAAAGACACAGAACG [Box C/D Kt (Kt_SPR)]	14.5 nM	599 nM	
GGAUGCAGAGAACGAAAGUUCCAUGACGCAUCCAAAUCGACGAAAGACACAGAACG [CS2]	0.00724 nM	114 nM	
GGAUGCAGAGAACGAAAGUUCCAUUACGCAUCCAAAUCGACGAAAGACACAGAACG [CS2-M3]	6.02 nM		
GGCAGAGAAAGGCCAUACAAUCAUUGGCCUUGUGAGGCCGUGUGUCUUCCAGUGGCAUCGACGAAAGACACAGAACG [LS4-1]		0.0736 nM	
GGCAGAGAAAGGCCAUACAAUCAUUGGCUUUUCCAUGACGCCAGUUCCAGUGGCAUCGACGAAAGACACAGAACG [LS12-1]	0.0105 nM		
GGUGGCAAAGAAAGGCGAAAGCCUUGUGAGGCCAUCAAAUCGACGAAAGACACAGAACG [CS1-M2b]		0.0865 nM	Kd fold change relative to LS4 (fold higher Kd than LS4) [3]: 1270
GGUGGCAGAGAAAGGCGAAAGCCUUGUGAGGCCAUCAAAUCGACGAAAGACACAGAACG [CS1]		0.00682 nM	Kd ([3]; equilibrium analysis): 27.5 nM
GGUGGCAUAGAAAGGCGAAAGCCUUGUGUGGCCAUCAAAUCGACGAAAGACACAGAACG [CS1-M2]		2.21 nM	Kd ([3]; N.D. in Table S4): > 1000 nM
GGUGGCUGAGAAAGGCGAAAGCCUUGUGAUGCCAUCAAAUCGACGAAAGACACAGAACG [CS1-M1]		0.171 nM	Kd ([3]; equilibrium analysis): 7.7 nM
